From EP0533846B1

Key:
[1] = biological target: human ciliary neurotrophic factor receptor (CNTFR) (human); assay: indirect binding assay on COS cells transfected with clone I10: 1 ug/ml CNTF-myc, 9E10, 125I goat anti-mouse antibody; hand-held gamma counter
[2] = biological target: human ciliary neurotrophic factor receptor (CNTFR) (human); assay: indirect binding assay on COS cells transfected with clone I1: 1 ug/ml CNTF-myc, 9E10, 125I goat anti-mouse antibody; hand-held gamma counter
[3] = biological target: human ciliary neurotrophic factor receptor (CNTFR) (human); assay: indirect binding assay on COS cells transfected with clone I8: 1 ug/ml CNTF-myc, 9E10, 125I goat anti-mouse antibody; hand-held gamma counter
[4] = biological target: human ciliary neurotrophic factor receptor (CNTFR) (human); assay: indirect binding assay on COS cells transfected with clone I14: 1 ug/ml CNTF-myc, 9E10, 125I goat anti-mouse antibody; hand-held gamma counter
[5] = biological target: human ciliary neurotrophic factor receptor (CNTFR) (human); assay: indirect binding assay on COS cells transfected with clone I7: 1 ug/ml CNTF-myc, 9E10, 125I goat anti-mouse antibody; hand-held gamma counter
[6] = biological target: human ciliary neurotrophic factor receptor (CNTFR) (human); assay: indirect binding assay on COS cells transfected with clone I11: 1 ug/ml CNTF-myc, 9E10, 125I goat anti-mouse antibody; hand-held gamma counter
[7] = biological target: human ciliary neurotrophic factor receptor (CNTFR) (human); assay: indirect binding assay on COS cells transfected with clone I12: 1 ug/ml CNTF-myc, 9E10, 125I goat anti-mouse antibody; hand-held gamma counter
[8] = biological target: human ciliary neurotrophic factor receptor (CNTFR) (human); assay: indirect binding: CNTF-myc, 9E10 antibody, FITC-labelled goat anti-mouse antibody, FACS on transfected COS cells
[9] = biological target: human ciliary neurotrophic factor receptor (CNTFR) (human); assay: indirect binding assay on COS cells transfected with clone I4: 1 ug/ml CNTF-myc, 9E10, 125I goat anti-mouse antibody; hand-held gamma counter
[10] = biological target: human ciliary neurotrophic factor receptor (CNTFR) (human); assay: indirect binding assay on COS cells transfected with clone I2: 1 ug/ml CNTF-myc, 9E10, 125I goat anti-mouse antibody; hand-held gamma counter
[11] = biological target: human ciliary neurotrophic factor receptor (CNTFR) (human); assay: indirect binding assay on COS cells transfected with clone I13: 1 ug/ml CNTF-myc, 9E10, 125I goat anti-mouse antibody; hand-held gamma counter
[12] = biological target: human ciliary neurotrophic factor receptor (CNTFR) (human); assay: indirect binding assay on COS cells transfected with clone I5: 1 ug/ml CNTF-myc, 9E10, 125I goat anti-mouse antibody; hand-held gamma counter
[13] = biological target: human ciliary neurotrophic factor receptor (CNTFR) (human); assay: indirect binding assay on COS cells transfected with clone I15: 1 ug/ml CNTF-myc, 9E10, 125I goat anti-mouse antibody; hand-held gamma counter
[14] = biological target: human ciliary neurotrophic factor receptor (CNTFR) (human); assay: indirect binding assay on COS cells transfected with clone I9: 1 ug/ml CNTF-myc, 9E10, 125I goat anti-mouse antibody; hand-held gamma counter
[15] = biological target: human ciliary neurotrophic factor receptor (CNTFR) (human); assay: indirect binding assay on COS cells transfected with clone I6: 1 ug/ml CNTF-myc, 9E10, 125I goat anti-mouse antibody; hand-held gamma counter
[16] = biological target: human ciliary neurotrophic factor receptor (CNTFR) (human); assay: approx. 100 pM iodinated CNTF on SH-SY5Y cells pre-treated with PI-PLC 500 mU/ml (receptor released before binding); no cold excess
[17] = biological target: human ciliary neurotrophic factor receptor (CNTFR) (human); assay: monolayer binding of 2.16 nM 125I-CNTF to SH-SY5Y cells (3 x 10^5 cells/well, endogenous receptor); cpm with 1000-fold excess unlabelled CNTF subtracted
[18] = biological target: human ciliary neurotrophic factor receptor (CNTFR) (human); assay: monolayer binding of 2.16 nM 125I-CNTF to COS cells transfected with clone I2 (6.5 x 10^4 cells/well); cpm with 1000-fold excess unlabelled CNTF subtracted
[19] = biological target: human ciliary neurotrophic factor receptor (CNTFR) (human); assay: monolayer binding of 2.16 nM 125I-CNTF to COS cells transfected with clone I2 (6.5 x 10^4 cells/well); specific cpm per cell
[20] = biological target: human ciliary neurotrophic factor receptor (CNTFR) (human); assay: iodinated CNTF bound to SH-SY5Y cells first, then PI-PLC 500 mU/ml for 45 min; no cold excess
[21] = biological target: human ciliary neurotrophic factor receptor (CNTFR) (human); assay: iodinated CNTF bound to SH-SY5Y cells first, then incubation without PI-PLC; with excess unlabelled CNTF (non-specific)
[22] = biological target: human ciliary neurotrophic factor receptor (CNTFR) (human); assay: approx. 100 pM iodinated CNTF on SH-SY5Y cells pre-treated with PI-PLC 500 mU/ml; with thousand-fold excess unlabelled CNTF (non-specific)
[23] = biological target: human ciliary neurotrophic factor receptor (CNTFR) (human); assay: approx. 100 pM iodinated CNTF on SH-SY5Y cells; control pre-treatment without PI-PLC; no cold excess
[24] = biological target: human ciliary neurotrophic factor receptor (CNTFR) (human); assay: iodinated CNTF bound to SH-SY5Y cells first, then PI-PLC 500 mU/ml for 45 min; with excess unlabelled CNTF (non-specific)
[25] = biological target: human ciliary neurotrophic factor receptor (CNTFR) (human); assay: iodinated CNTF bound to SH-SY5Y cells first, then incubation without PI-PLC; no cold excess
[26] = biological target: human ciliary neurotrophic factor receptor (CNTFR) (human); assay: monolayer binding of 2.16 nM 125I-CNTF to SH-SY5Y cells (3 x 10^5 cells/well, endogenous receptor); specific cpm per cell
[27] = biological target: human ciliary neurotrophic factor receptor (CNTFR) (human); assay: approx. 100 pM iodinated CNTF on SH-SY5Y cells; control pre-treatment without PI-PLC; with thousand-fold excess unlabelled CNTF (non-specific)

In the case of “CNTF/myc (CNTF carrying a C-terminal ten amino acid c-myc epitope tag) (ligand)”, the CPM bound (125I-GaM) [1] is reported as 4500 CPM, the CPM bound (125I-GaM) [2] is reported as 2000 CPM and the CPM bound (125I-GaM) [3] is reported as 7500 CPM. It also gave a CPM bound (125I-GaM) [4] of 10000 CPM, a CPM bound (125I-GaM) [5] of 6000 CPM and a CPM bound (125I-GaM) [6] of 7000 CPM. For the same substance, the CPM bound (125I-GaM) [7] was 5000 CPM, the fold increase (FACS fluorescence) against cells transfected with negative clones [8] was 100 fold and the CPM bound (125I-GaM) [9] was 9000 CPM. For the same substance, the CPM bound (125I-GaM) [10] was 8500 CPM, the CPM bound (125I-GaM) [11] was 8000 CPM and the CPM bound (125I-GaM) [12] was 2000 CPM. For the same substance, the CPM bound (125I-GaM) [13] was 8000 CPM, the CPM bound (125I-GaM) [14] was 7000 CPM and the CPM bound (125I-GaM) [15] was 1600 CPM.

In the case of “125I-hCNTF (iodinated human ciliary neurotrophic factor) (from UniProt P26441 1-200) (ligand)”, the CPM Bound [16] is reported as 420 CPM, the Specific cpm bound [17] is reported as 1280 cpm and the Specific cpm bound [18] is reported as 1410 cpm. It also gave a cpm/cell [19] of 0.0217 cpm/cell, a CPM Bound [20] of 1060 CPM and a CPM Bound [21] of 310 CPM. The CPM Bound [22] was 310 CPM, the CPM Bound [23] was 1440 CPM and the CPM Bound [24] was 300 CPM. It also gave a CPM Bound [25] of 1250 CPM, a cpm/cell [26] of 0.00428 cpm/cell and a CPM Bound [27] of 370 CPM.
